# Measurements as given in the nanobody polyreactivity screen of Harvey et al. (2022).
# Assay: yeast display, Sf9 membrane polyspecificity reagent, FACS + sequencing; frameworks hold sequencing errors
# Summary of the method: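 Nanobodies came from a synthetic yeast display library in Saccharomyces cerevisiae BJ5465, induced with galactose for 36–48 hours and stained for 1 hour at 4 °C with 10% biotinylated, detergent-solubilized Sf9 membrane reagent. Cells were enriched on streptavidin microbeads and then FACS-sorted, with low and high (top ~1%) gates set on anti-HA fluorescence for expression and streptavidin fluorescence for reagent binding. Each polyreactivity label reflects the gate a clone came from. Genes were amplified by colony PCR, sequenced by MiSeq 2 × 250 and filtered by CDR length.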
row,Sequence,polyreactivity (PSR sort gate)
1,QVQLVESGGGLVQAGGSLRLSCAASGLTFARNAMGWYRQAPGKERELVAAISSGGSTYYADSVKGRFTISRDNAKNPVYLQMNSLKPEDTAVYYCAARPIPRYYGKFWRVDYWGQGTQVTVSS,high polyreactivity
2,QVQLVESGGGLVQAGGSLRLSCAASGLTFASNALGWYRQAPWKERELVAGISRTGTTTYYADSVKGRFTISRDNAKNTVYLQMNSLKPEDTAVYYCAASKQAVKYRSQRYYYWGQGTQVTVSS,high polyreactivity
3,QVQLVESGGGLVQAGGSLRLSCAASGLTFASYAMGWYRQAPGKERDLVARISRSGGSTYYADSVKGRFTISRDNAKNTVYLQMNSLKPEDTAVYYCAADYIFRRYPVGGIYDYDYWGQGTQVTVSS,high polyreactivity
4,QVQLVESGGGLVQAGGSLRLSCAASGLTFASYAMGWYRQSPGKERELVARISRSGGSTYYADSVKGRFTISRDNAKNTVYLQMNSLKPEDTAVYYCAARNSYGNWRYYYWGQGTQVTVSS,high polyreactivity
5,QVQLVESGGGLVQAGGSLRLSCAASGLTFAYNGLGWYRQAPGKEGELVAEISASGASTYYADSVKGRFTISRDNAKNTVYLQMNSLKPEDTAVYYCAAPAPYDGHYSIYSWAYTDDYWGQGTQVTVSS,low polyreactivity
6,QVQLVESGGGLVQAGGSLRLSCAASGLTFAYYAMGWYRQAPGKERELVAAISYSGGSTYYADSVKGRFTISRDNANKTVYLQMNSLKPEDTAVYYCNRDRNSGFYRRYGYWGQGTQVTVSS,high polyreactivity
7,QVQLVESGGGLVQAGGSLRLSCAASGLTFAYYAMGWYRQAPGKETELVAAISWNGARTYYADSVKGRFTISRDNSKNTVYLQMNSLKPEDTAVYYCAAVRSASSWQYIWLKYYYWGQGTQVTVSS,high polyreactivity
8,QVQLVESGGGLVQAGGSLRLSCAASGLTFAYYDMGWYIQAPGKEREMVAAITSGGTTNYADSVKGSFTISRDNANNTVYFQMNSLKPEDTAVYYCNADYYSRIVGVRIYEYWGQGTQVTVSS,low polyreactivity
9,QVQLVESGGGLVQAGGSLRLSCAASGLTFDGNAMGWYRQAPGKERELVAAITSSGGNTYYADSVKGRFTISRDNAKNTVYLQMNSLKPEDTAVYYCAAGGYRWSARTWSWVRYDYWGQGTQVTVSS,high polyreactivity
10,QVQLVESGGGLVQAGGSLRLSCAASGLTFDHNVMGWYRQAPGKERELVAAISRSGSSTYYADSVKGRFTISRDNAKNTVYLQMNSLKPEDTAVYYCAASDKRIYNLLRRYYYWGQGTQVTVSS,high polyreactivity
11,QVQLVESGGGLVQAGGSLRLSCAASGLTFDQYVMGWYRQAPGKERELVAAISRRGGGTYYADSVKGRFTISRDNAKNTVYLQMNSLKPEDTAVYYCNTDQAWRSWRGNYPFLTGNYWGQGTQVTVSS,high polyreactivity
12,QVQLVESGGGLVQAGGSLRLSCAASGLTFDRYAKGWYRQAPGKERELVAAITSGGSTYYADSVKGRFTISRDNAKNTVYLQMNSLKPEDTAVYYCAALVFRGRSFTHDYWGQGTQVTVSS,high polyreactivity
13,QVQLVESGGGLVQAGGSLRLSCAASGLTFDTYAMGWYRQAPGKERELVAAISIGGRTNYADSVKGRFTISRDNAKNTVYLQMNSLKPEDTAVYYCAVGAVVPGRRRRTYYYWGQGTQVTVSS,high polyreactivity
14,QVQLVESGGGLVQAGGSLRLSCAASGLTFDVYAMGWYRQAPGKERELVAALSTSGGRTYSADSVKGRFTISRDNAKNTVYLQMNSLKPEVTAVYYCNAGYDYYWRYYWYWYAFNYWGQGTQVTVSS,high polyreactivity
15,QVQLVESGGGLVQAGGSLRLSCAASGLTFDWYALGWYRQAPGKERELVAAISWNGVSTDYADSVKGRFTISRDNAKNTVYLQMNSLKPEDTAVYYCNAKGQRNKRWRGYWGQGTQVTVSS,high polyreactivity
16,QVQLVESGGGLVQAGGSLRLSCAASGLTFEDYAMGWNRQEPGKEREFVAAISTSGGRTYYADSVKGRFTISRDNAKNTVYLQMNSLKPEDTAVYYCAAGGWYGYVYRFYYWGQGTQVTVSS,high polyreactivity
17,QVQLVESGGGLVQAGGSLRLSCAASGLTFEKYAMGWYRQAPGKERELVAAISQDGGSTYYADSVKGRFTISRDNAKNTVYLQMNSLKPEDTAVYYCAAEDPDSWLPWDLFDYWGQGTQVTVSS,low polyreactivity
18,QVQLVESGGGLVQAGGSLRLSCAASGLTFEWYTMGWYRQAPGKERALVAVITVSGSSTYYADSVKGRFSISRDNAKNTVYFQMNSLKPEDTAVYYCNADWSFYSYTLYDYWGQGTQVTVSS,low polyreactivity
19,QVQLVESGGGLVQAGGSLRLSCAASGLTFFNYAMGWNRQAPGKERELVASITSGGSTNYADSVKGRFTISRDNAKNTVYLQMNSLNPEDTAVYYCAARYPYRTYKLSHSYARPYGYWGQGTQVTVSS,high polyreactivity
20,QVQLVESGGGLVQAGGSLRLSCAASGLTFFYYAMGWYRQAPGKERELVAGISRSGGSTYYADSVKGRFTISRDNAKNTVYLQMISLKPEDTAVYYCAKRTLVASYIYREGEYWGQGTQVTVSS,high polyreactivity
21,QVQLVESGGGLVQAGGSLRLSCAASGLTFFYYAMGWYRQAPGKERELVASISSSGITNYADSVKGRFTISRDNAKNTVYLQMNSLKPEDTAVYYCASQYYISPLRYYSPTGGYWGQGTQVTVSS,high polyreactivity

row,Sequence,polyreactivity (PSR sort gate)
1,QVQLVESGGGLVQAGGSLRLSCAASGLTFGDYTMGWYRQAPGKERELVAAISTSGGSTYYADSVKGRFTISRDNAKNTVYLQMNSLKPEDTAVYYCNARRTHTRSHYYYWGQGTQVTVSS,high polyreactivity
2,QVQLVESGGGLVQAGGSLRLSCAASGLTFGDYTMGWYRQAPGKERELVAAITGSGASTYYADSVKGRFTISRDNAQNTGYLQMNSLKPEDTAVYYCDAERTPSYRAYDYWGQGTQVTVSS,low polyreactivity
3,QVQLVESGGGLVQAGGSLRLSCAASGLTFGDYTMGWYRQAPGKERELVAAITWSGASTYYADSVKGRFTISRDNAKNTVYLEMNSLKPEDTAGYYCAAERTPSYRAYDYWGQGTQVTVSS,low polyreactivity
4,QVQLVESGGGLVQAGGSLRLSCAASGLTFGFNAMGWYRQAPGKERELVAAISSRGGSTYYADSVKGRFTISRDNAKNTVYLQMNSLKPEDTAVYYCNARSVYDGFWYNYWGQGTQVTVSS,low polyreactivity
5,QVQLVESGGGLVQAGGSLRLSCAASGLTFGFYARGWYTQAPGKERQLVPRISNGGSTNYADSVKGRFTISRDNAKNTVYLQMNSLKPEDTAVYYCNAGLVLPPPGAYIVYFDQMDYWGQGTQVTVSS,low polyreactivity
6,QVQLVESGGGLVQAGGSLRLSCAASGLTFGGNAMGWYRQAPGKERELVAGISWSGGNTNYADSVKGRFTISRDNAKNTVYLQMNSLKPEDNAVYYCNKATNLSGGYDSWGQGTQVTVSS,low polyreactivity
7,QVQLVESGGGLVQAGGSLRLSCAASGLTFGGYVMGWYRQAPGKERELVAAISGSGGRTYYADSVKGRFTISRDNAKNTVYLQRNSLKPEDTAVYDCARPPRGPPRGYYWGQGTQVTVSS,high polyreactivity
8,QVQLVESGGGLVQAGGSLRLSCAASGLTFGRNAMGWYRQAPGKERELVAAIRWSGGSTYYADSVKGRFTISRDNAKNTVYLQMNSLKPEDTAVYYCAATRVLRPVGTHYYYWGQGTQVTVSS,high polyreactivity
9,QVQLVESGGGLVQAGGSLRLSCAASGLTFGRYAMGWYRQAPGKERELVAAITASGGITYYADSVKGRFTISRDNAKNTVYLQMNSLKPEDTAVYYCAADGEVKYDYWGQGTQVTVSS,low polyreactivity
10,QVQLVESGGGLVQAGGSLRLSCAASGLTFGSYAMGWYRQAPGKERELVAAISRSGITYYADSVKGRFTISRDNAKNTVYLQMNSLKPEDTAVYYWAVTQNSKSTKIRPDQGDYGGQGTQVTVSS,high polyreactivity
11,QVQLVESGGGLVQAGGSLRLSCAASGLTFGVYAMGWSRQAPGKERELVAAIDLSDDITYYADSVKGRFTISRDNAKNTVYLQMNSLKPEDTAVYYSAAEYYLYSTYTVSYWKYDYWGQGTQVTVSS,high polyreactivity
12,QVQLVESGGGLVQAGGSLRLSCAASGLTFGYYAMGWYRQAPGKERELVAGISGSGGSTYYADSVKGRFTISRDNAKNTLYLQMNSLKPEDTAVYYCNAEARYTGFAYSYFNSDYWGQGTQVTVSS,low polyreactivity
13,QVQLVESGGGLVQAGGSLRLSCAASGLTFGYYAMGWYRQAPGKERELVAVISGGGGTHYADSVKGRFTISRDNAKITVYLQMNSLKPEDTAVYYCAARYRAQQIARYYYWGQGTQVTVSS,high polyreactivity
14,QVQLVESGGGLVQAGGSLRLSCAASGLTFGYYDMGRYRQAPGKERELVAAITSGGTTNYADSVKGRFTISRDNAKNTVYLQMNSQKPEDNAVYYCNADYYSRIVGVRIYDYWGQGTQVTVSS,low polyreactivity
15,QVQLVESGGGLVQAGGSLRLSCAASGLTFIHYAMGWYRQAPGKEREFVAAISTNSGSTYYADSVKGRFTISRDNAKNTVYLQMNSLKPEDTAVYYCAARGLRWRIDGEYWGQGTQVTVSS,high polyreactivity
16,QVQLVESGGGLVQAGGSLRLSCAASGLTFIIYAMGWYRQAPGKERELVARISSGGRTNYADSVKGRFTISRDYAKNTVYIQMNSLTPEDTAVYYCAAAFVYPYRHYYRYDYWGQATQVTVSS,high polyreactivity
17,QVQLVESGGGLVQAGGSLRLSCAASGLTFKANAMGWYRQAPGKERELVAAITWSGTSTYYADSVKGRFTISRDNAKNTVYLQMNSLKPEDTAVYYCNKPYDVWYHDYDYWGQGTQVTVSS,low polyreactivity
18,QVQLVESGGGLVQAGGSLRLSCAASGLTFKFNAMGWYIQAPGKERELVADISFGGDDTYYSDSVKGRFTISRDNAKNTVYLQMNSQKPEDNAVYYCAAEYDTWGYSGRDYWGQGTQVTVSS,low polyreactivity
19,QVQLVESGGGLVQAGGSLRLSCAASGLTFKRYAMGWYRQAPGKEREFVAAISAGGASTHYADSVKGRFTISRDNAKNTVYLQMNSLKPEDTAVYYCATDYRTFRPSFGYWGQGTQVTVSS,low polyreactivity
20,QVQLVESGGGLVQAGGSLRLSCAASGLTFKRYVMGWYRQAPGKERELVAAITVSGGNTYYADSVKGRFTISRDNAKNTVYLQMNSLKPEDTAVYYCNADAGAIYYRRYHFYYWGQGTQVTVSS,low polyreactivity
21,QVQLVESGGGLVQAGGSLRLSCAASGLTFKSNAMGWYRPAPGKERELVASISKRGGTTYYADSVKGRFTISRDNAKNTVYLQMNSLKPEDTAVYYCAAQSRATTYSWWTGSDYWGQGTQVTVSS,high polyreactivity
